Laboratory results reported in patent US20090162366A1 (KIRIN PHARMA, published 2009).

T1: OVA (UniProt P01012 2-386)
T1 sequence: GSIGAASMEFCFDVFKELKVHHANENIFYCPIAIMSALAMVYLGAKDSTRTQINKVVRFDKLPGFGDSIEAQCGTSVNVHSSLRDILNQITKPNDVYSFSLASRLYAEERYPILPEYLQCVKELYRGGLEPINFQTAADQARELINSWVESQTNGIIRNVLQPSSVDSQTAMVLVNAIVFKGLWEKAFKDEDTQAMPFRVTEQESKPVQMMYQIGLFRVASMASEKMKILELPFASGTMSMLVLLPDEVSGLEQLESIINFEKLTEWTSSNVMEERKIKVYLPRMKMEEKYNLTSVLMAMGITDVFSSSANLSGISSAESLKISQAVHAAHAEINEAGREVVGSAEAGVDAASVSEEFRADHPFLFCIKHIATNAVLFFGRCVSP


Tests used:
BSA = BSA (UniProt P02769 25-607); assay: ELISA
BSA, sequence (P02769 25-607 limits assumed): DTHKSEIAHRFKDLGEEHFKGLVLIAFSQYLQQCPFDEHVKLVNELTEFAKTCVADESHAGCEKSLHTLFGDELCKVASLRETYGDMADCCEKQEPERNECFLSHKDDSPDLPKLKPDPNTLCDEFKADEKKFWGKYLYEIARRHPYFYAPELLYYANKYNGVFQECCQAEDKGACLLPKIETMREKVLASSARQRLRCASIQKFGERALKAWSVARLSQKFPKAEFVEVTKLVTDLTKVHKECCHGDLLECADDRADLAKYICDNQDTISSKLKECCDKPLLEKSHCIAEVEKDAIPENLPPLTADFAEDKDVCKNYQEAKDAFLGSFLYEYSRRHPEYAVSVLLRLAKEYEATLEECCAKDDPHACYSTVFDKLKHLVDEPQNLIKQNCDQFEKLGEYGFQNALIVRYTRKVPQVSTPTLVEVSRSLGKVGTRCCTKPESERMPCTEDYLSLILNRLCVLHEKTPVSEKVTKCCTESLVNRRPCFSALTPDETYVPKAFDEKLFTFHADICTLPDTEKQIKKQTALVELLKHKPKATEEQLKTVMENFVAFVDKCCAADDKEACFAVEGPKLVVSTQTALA

OVA = target: T1, OVA; assay: ELISA

| Binder | binding result (BSA) | binding result (OVA) |
| --- | --- | --- |
| C40 (antibody, V domains shown) VH: QLQLQESGPGLVKPSETLSLTCTVSGGSISSSFYYCGWIRQPPGKGLEWIGSIYYRGSTYYNPSLKSRVTISVDTSKNQFSLKLSSVTAADTAVYYCARRVTMVRGVKGDYFDYWGQGTLVTVSS VL: DIQMTQSPSSLSASVGDRVTITCRASQGISSWLAWYQQKPEKVPKSLIYAASSLQSGVPSRFSGSGSGTDFTLTISSLQPEDFATYYCQQYNYYPLTFGGGTKVEIKR | no binding (tested: below 0.1 at OD450nm) | no binding (tested: below 0.1 at OD450nm) |
| C40G1 (antibody, V domains shown) VH: QLQLQESGPGLVKPSETLSLTCTVSGGSISSSFYYCGWIRQPPGKGLEWIGSIYYRGSTYYNPSLKSRVTISVDTSKNQFSLKLSSVTAADTAVYYCARRVTMVRGVKGDYFDYWGQGTLVTVSS VL: DIQMTQSPSSLSASVGDRVTITCRASQGISSWLAWYQQKPEKVPKSLIYAASSLQSGVPSRFSGSGSGTDFTLTISSLQPEDFATYYCQQYNYYPLTFGGGTKVEIKR | no binding (tested: below 0.1 at OD450nm) | no binding (tested: below 0.1 at OD450nm) |
| L66 (antibody, V domains shown) VH: EVQLVESGGGVVRPGGSLRLSCAASGFTFDDYGMSWVRQAPGKGLEWVSGINWNGGSTGYADSVKGRFTISRDNAKNSLYLQMNSLRAEDTALYYCARDRVTMVRGVIMDYYGMDVWGQGTTVTVSS VL: QTVVTQEPSLTVSPRGTVTLTCSSSTGAVTSGYYPGWFQLKPGQAPMSLIYSARKKHSWTPARFSGSLLGGKAALTLSGVQPEDEAEYYCLLYYGGAYVFGTGTKVTVLG | no binding (tested: below 0.1 at OD450nm) | no binding (tested: below 0.1 at OD450nm) |
| N547 (antibody, V domains shown) VH: not shown VL: QSVLTQPPSMSAAPGQKVTISCSGSSSNIGNNYISWYQQLPGTAPKVLIYDNNKRPSGIPDRFSGSKSGTSATLGITGLQTGDEADYYCGSWDSSLSAGVFGTGTKVTVLG | no binding (tested: below 0.1 at OD450nm) | no binding (tested: below 0.1 at OD450nm) |
